Laboratory results: the supplement of paper PMC9112550, “Optimization of the antimicrobial peptide Bac7 by deep mutational scanning” (BMC Biology, 2022)

The sequences below were run on Escherichia coli TOP10 (assay: shrunken log2 fold change of peptide-encoding DNA abundance (4.5 h post-induction vs induction); higher = less antimicrobial activity (less host growth inhibition)). Conditions: time post-induction: 4.5 h; library: site-saturation at positions 5, 18, 19, 20.
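Note: peptides expressed intracellularly from a pBAD plasmid library in pooled LB shake-flask culture, induced with 0.3% L-arabinose, DNA abundance read by NGS, three biological replicates, DESeq2 with apeglm shrinkage.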

Sequence	shrunken log2 fold change
RRIRCRPPRLPRPRPRPHWCPRP	-0.155
RRIRCRPPRLPRPRPRPHWWPRP	0.0398
RRIRCRPPRLPRPRPRPHYRPRP	0.127
RRIRCRPPRLPRPRPRPIARPRP	0.19
RRIRCRPPRLPRPRPRPIASPRP	-0.0344
RRIRCRPPRLPRPRPRPICCPRP	-0.166
RRIRCRPPRLPRPRPRPICDPRP	-0.0093
RRIRCRPPRLPRPRPRPIDRPRP	-0.0643
RRIRCRPPRLPRPRPRPIEAPRP	-0.108
RRIRCRPPRLPRPRPRPIEEPRP	0.008
RRIRCRPPRLPRPRPRPIFPPRP	0.247
RRIRCRPPRLPRPRPRPIFVPRP	-0.284
RRIRCRPPRLPRPRPRPIGPPRP	0.112
RRIRCRPPRLPRPRPRPIGVPRP	0.0129
RRIRCRPPRLPRPRPRPIHFPRP	-0.368
RRIRCRPPRLPRPRPRPIIAPRP	-0.494
RRIRCRPPRLPRPRPRPIITPRP	-0.892
RRIRCRPPRLPRPRPRPIKMPRP	-0.185
RRIRCRPPRLPRPRPRPILFPRP	-0.405
RRIRCRPPRLPRPRPRPILIPRP	1.28
RRIRCRPPRLPRPRPRPIMAPRP	-0.236
RRIRCRPPRLPRPRPRPIMHPRP	-0.135
RRIRCRPPRLPRPRPRPINMPRP	-1.09
RRIRCRPPRLPRPRPRPINPPRP	-0.00918
RRIRCRPPRLPRPRPRPINTPRP	-0.329

Sequence	shrunken log2 fold change
RRIRCRPPRLPRPRPRPIQWPRP	-0.263
RRIRCRPPRLPRPRPRPIRWPRP	0.034
RRIRCRPPRLPRPRPRPISIPRP	-0.443
RRIRCRPPRLPRPRPRPITTPRP	-0.197
RRIRCRPPRLPRPRPRPITYPRP	-0.362
RRIRCRPPRLPRPRPRPIVPPRP	-0.298
RRIRCRPPRLPRPRPRPIVTPRP	0.0598
RRIRCRPPRLPRPRPRPIWYPRP	-0.564
RRIRCRPPRLPRPRPRPIYNPRP	-0.761
RRIRCRPPRLPRPRPRPIYPPRP	-0.386
RRIRCRPPRLPRPRPRPKANPRP	1.15
RRIRCRPPRLPRPRPRPKDAPRP	0.183
RRIRCRPPRLPRPRPRPKDFPRP	-0.0611
RRIRCRPPRLPRPRPRPKDVPRP	0.015
RRIRCRPPRLPRPRPRPKECPRP	0.103
RRIRCRPPRLPRPRPRPKFFPRP	0.0952
RRIRCRPPRLPRPRPRPKHLPRP	-0.122
RRIRCRPPRLPRPRPRPKIHPRP	-0.558
RRIRCRPPRLPRPRPRPKLQPRP	0.155
RRIRCRPPRLPRPRPRPKMDPRP	-0.0622
RRIRCRPPRLPRPRPRPKMTPRP	0.0216
RRIRCRPPRLPRPRPRPKPIPRP	0.0598
RRIRCRPPRLPRPRPRPKSPPRP	-0.1
RRIRCRPPRLPRPRPRPKTKPRP	0.177
RRIRCRPPRLPRPRPRPKYTPRP	-0.511

Sequence	shrunken log2 fold change
RRIRCRPPRLPRPRPRPLDLPRP	-0.0926
RRIRCRPPRLPRPRPRPLEWPRP	0.0823
RRIRCRPPRLPRPRPRPLFIPRP	-0.51
RRIRCRPPRLPRPRPRPLGRPRP	-0.151
RRIRCRPPRLPRPRPRPLHAPRP	0.369
RRIRCRPPRLPRPRPRPLHFPRP	-0.131
RRIRCRPPRLPRPRPRPLHIPRP	-0.335
RRIRCRPPRLPRPRPRPLHTPRP	-0.0899
RRIRCRPPRLPRPRPRPLIEPRP	-0.0593
RRIRCRPPRLPRPRPRPLIGPRP	-0.0236
RRIRCRPPRLPRPRPRPLKDPRP	-0.0917
RRIRCRPPRLPRPRPRPLKEPRP	0.244
RRIRCRPPRLPRPRPRPLKKPRP	-0.26
RRIRCRPPRLPRPRPRPLKQPRP	-0.151
RRIRCRPPRLPRPRPRPLLEPRP	0.234
RRIRCRPPRLPRPRPRPLLFPRP	-0.277
RRIRCRPPRLPRPRPRPLLLPRP	-0.265
RRIRCRPPRLPRPRPRPLLTPRP	0.00188
RRIRCRPPRLPRPRPRPLMNPRP	-0.645
RRIRCRPPRLPRPRPRPLRCPRP	0.198
RRIRCRPPRLPRPRPRPLSNPRP	0.504
RRIRCRPPRLPRPRPRPLTEPRP	0.131
RRIRCRPPRLPRPRPRPLVCPRP	-0.0544
RRIRCRPPRLPRPRPRPLWSPRP	-0.233
RRIRCRPPRLPRPRPRPLYSPRP	-0.672

Sequence	shrunken log2 fold change
RRIRCRPPRLPRPRPRPLYWPRP	-0.201
RRIRCRPPRLPRPRPRPMAIPRP	-0.132
RRIRCRPPRLPRPRPRPMCHPRP	-0.662
RRIRCRPPRLPRPRPRPMCTPRP	-0.098
RRIRCRPPRLPRPRPRPMDGPRP	0.013
RRIRCRPPRLPRPRPRPMEMPRP	-0.193
RRIRCRPPRLPRPRPRPMERPRP	-0.00088
RRIRCRPPRLPRPRPRPMFLPRP	-0.847
RRIRCRPPRLPRPRPRPMGSPRP	0.0655
RRIRCRPPRLPRPRPRPMHCPRP	-0.107
RRIRCRPPRLPRPRPRPMHQPRP	-0.0626
RRIRCRPPRLPRPRPRPMKYPRP	-0.82
RRIRCRPPRLPRPRPRPMLFPRP	0.545
RRIRCRPPRLPRPRPRPMLIPRP	-0.552
RRIRCRPPRLPRPRPRPMLNPRP	-0.38
RRIRCRPPRLPRPRPRPMLVPRP	-0.144
RRIRCRPPRLPRPRPRPMMKPRP	-0.231
RRIRCRPPRLPRPRPRPMNHPRP	-0.658
RRIRCRPPRLPRPRPRPMPDPRP	-0.0379
RRIRCRPPRLPRPRPRPMPEPRP	0.122
RRIRCRPPRLPRPRPRPMPFPRP	-0.0545
RRIRCRPPRLPRPRPRPMPHPRP	-0.0714
RRIRCRPPRLPRPRPRPMQTPRP	1.52
RRIRCRPPRLPRPRPRPMRQPRP	0.076
RRIRCRPPRLPRPRPRPMSHPRP	-0.207

Sequence	shrunken log2 fold change
RRIRCRPPRLPRPRPRPMSRPRP	0.0291
RRIRCRPPRLPRPRPRPMSVPRP	-0.0655
RRIRCRPPRLPRPRPRPMTHPRP	-0.377
RRIRCRPPRLPRPRPRPMVCPRP	-0.143
RRIRCRPPRLPRPRPRPMVLPRP	-0.388
RRIRCRPPRLPRPRPRPMVQPRP	-0.292
RRIRCRPPRLPRPRPRPMVSPRP	0.0237
RRIRCRPPRLPRPRPRPMYAPRP	0.0401
RRIRCRPPRLPRPRPRPMYTPRP	-0.551
RRIRCRPPRLPRPRPRPNADPRP	0.342
RRIRCRPPRLPRPRPRPNAKPRP	0.0347
RRIRCRPPRLPRPRPRPNARPRP	0.00577
RRIRCRPPRLPRPRPRPNDAPRP	-0.12
RRIRCRPPRLPRPRPRPNDFPRP	-0.241
RRIRCRPPRLPRPRPRPNDYPRP	-0.42
RRIRCRPPRLPRPRPRPNEGPRP	-0.1
RRIRCRPPRLPRPRPRPNEHPRP	-0.553
RRIRCRPPRLPRPRPRPNELPRP	-0.171
RRIRCRPPRLPRPRPRPNEPPRP	0.0197
RRIRCRPPRLPRPRPRPNFEPRP	-0.0286
RRIRCRPPRLPRPRPRPNFNPRP	-0.372
RRIRCRPPRLPRPRPRPNIWPRP	-0.178
RRIRCRPPRLPRPRPRPNKDPRP	-0.534
RRIRCRPPRLPRPRPRPNKFPRP	-0.472
RRIRCRPPRLPRPRPRPNKNPRP	-0.344

Sequence	shrunken log2 fold change
RRIRCRPPRLPRPRPRPNKWPRP	-0.00442
RRIRCRPPRLPRPRPRPNLTPRP	-0.162
RRIRCRPPRLPRPRPRPNMAPRP	-0.614
RRIRCRPPRLPRPRPRPNNEPRP	-0.529
RRIRCRPPRLPRPRPRPNPLPRP	-0.131
RRIRCRPPRLPRPRPRPNPYPRP	-0.44
RRIRCRPPRLPRPRPRPNQMPRP	-0.447
RRIRCRPPRLPRPRPRPNQNPRP	-0.437
RRIRCRPPRLPRPRPRPNRIPRP	-0.111
RRIRCRPPRLPRPRPRPNRTPRP	-0.0547
RRIRCRPPRLPRPRPRPNSQPRP	-0.47
RRIRCRPPRLPRPRPRPNTDPRP	-0.27
RRIRCRPPRLPRPRPRPNTFPRP	-0.664
RRIRCRPPRLPRPRPRPNVWPRP	0.0481
RRIRCRPPRLPRPRPRPNWKPRP	0.0151
RRIRCRPPRLPRPRPRPNYYPRP	-0.868
RRIRCRPPRLPRPRPRPPARPRP	0.735
RRIRCRPPRLPRPRPRPPATPRP	0.887
RRIRCRPPRLPRPRPRPPCEPRP	-0.0942
RRIRCRPPRLPRPRPRPPCFPRP	0.197
RRIRCRPPRLPRPRPRPPCWPRP	0.264
RRIRCRPPRLPRPRPRPPEVPRP	0.124
RRIRCRPPRLPRPRPRPPFFPRP	0.449
RRIRCRPPRLPRPRPRPPFNPRP	-0.137
RRIRCRPPRLPRPRPRPPFYPRP	-0.0226
